Test results as given in the supplement of paper PMC10567573.

B1: TOR1AIP2 (parent)
chain: HHVADAYTSSQKVSPIQIDGAGRT

Variants of: B1
Test: protein stability index of a GFP-peptide fusion (GPS, HEK-293T) (PSI 1-6); higher = more stable
Details: c terminus: a fixed tail appended
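Note: lentivirally expressed fusions sorted by FACS into six bins by GFP to DsRed ratio, PSI derived from sequencing read proportions per bin multiplied by bin number.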

Row | Variant | protein stability index
1 | HHVADAYTSSQKVSPTQIDGAGRT [I16T] | 4.13
2 | HHVADAYTSSQKVSPDQIDGAGRT [I16D] | 4.46
3 | HHVADAYTSSQKVSPHQIDGAGRT [I16H] | 3.45
4 | HHVADAYTSSQKVSPQQIDGAGRT [I16Q] | 3.69
5 | HHVADAYTSSQKVSPVQIDGAGRT [I16V] | 4.05
6 | HHVADAYTSSQKVSPCQIDGAGRT [I16C] | 3.31
7 | HHVADAYTSSQKVSPWQIDGAGRT [I16W] | 2.59
8 | HHVADAYTSSQKVSPKQIDGAGRT [I16K] | 4.04
9 | HHVADAYTSSQKVSPLQIDGAGRT [I16L] | 3.6
10 | HHVADAYTSSQKVSPSQIDGAGRT [I16S] | 3.78
11 | HHVADAYTSSQKVSPEQIDGAGRT [I16E] | 4.51
12 | HHVADAYTSSQKVSPYQIDGAGRT [I16Y] | 3.69
13 | HHVADAYTSSQKVSPNQIDGAGRT [I16N] | 3.88
14 | HHVADAYTSSQKVSPPQIDGAGRT [I16P] | 4.09
15 | HHVADAYTSSQKVSPAQIDGAGRT [I16A] | 3.72
16 | HHVADAYTSSQKVSPFQIDGAGRT [I16F] | 3.49
17 | HHVADAYTSSQKVSPRQIDGAGRT [I16R] | 3.94
18 | HHVADAYTSSQKVSPGQIDGAGRT [I16G] | 3.78
19 | HHVADAYTSSQKVSPMQIDGAGRT [I16M] | 3.38
20 | HHVADAYTSSQKVSPIQIWGAGRT [D19W] | 1.94
21 | HHVADAYTSSQKVSPIQIAGAGRT [D19A] | 3.01
22 | HHVADAYTSSQKVSPIQIMGAGRT [D19M] | 2.7
23 | HHVADAYTSSQKVSPIQINGAGRT [D19N] | 3.34
24 | HHVADAYTSSQKVSPIQIFGAGRT [D19F] | 2.77

Row | Variant | protein stability index
25 | HHVADAYTSSQKVSPIQIKGAGRT [D19K] | 3.14
26 | HHVADAYTSSQKVSPIQIVGAGRT [D19V] | 3.28
27 | HHVADAYTSSQKVSPIQIIGAGRT [D19I] | 2.54
28 | HHVADAYTSSQKVSPIQIQGAGRT [D19Q] | 3.75
29 | HHVADAYTSSQKVSPIQICGAGRT [D19C] | 3.1
30 | HHVADAYTSSQKVSPIQISGAGRT [D19S] | 3.2
31 | HHVADAYTSSQKVSPIQIYGAGRT [D19Y] | 2.47
32 | HHVADAYTSSQKVSPIQIPGAGRT [D19P] | 3.06
33 | HHVADAYTSSQKVSPIQIEGAGRT [D19E] | 3.43
34 | HHVADAYTSSQKVSPIQIRGAGRT [D19R] | 2.93
35 | HHVADAYTSSQKVSPIQITGAGRT [D19T] | 3.07
36 | HHVADAYTSSQKVSPIQIHGAGRT [D19H] | 2.87
37 | HHVADAYTSSQKVSPIQIGGAGRT [D19G] | 3.4
38 | HHVADAYTSSQKVSPIQILGAGRT [D19L] | 2.36
39 | HHVADAYTSMQKVSPIQIDGAGRT [S10M] | 2.93
40 | HHVADAYTSVQKVSPIQIDGAGRT [S10V] | 2.9
41 | HHVADAYTSQQKVSPIQIDGAGRT [S10Q] | 3.24
42 | HHVADAYTSKQKVSPIQIDGAGRT [S10K] | 3.46
43 | HHVADAYTSWQKVSPIQIDGAGRT [S10W] | 2.37
44 | HHVADAYTSRQKVSPIQIDGAGRT [S10R] | 2.64
45 | HHVADAYTSTQKVSPIQIDGAGRT [S10T] | 3.28
46 | HHVADAYTSPQKVSPIQIDGAGRT [S10P] | 3.87
47 | HHVADAYTSHQKVSPIQIDGAGRT [S10H] | 3.17
48 | HHVADAYTSIQKVSPIQIDGAGRT [S10I] | 2.72

Row | Variant | protein stability index
49 | HHVADAYTSLQKVSPIQIDGAGRT [S10L] | 3.07
50 | HHVADAYTSYQKVSPIQIDGAGRT [S10Y] | 2.94
51 | HHVADAYTSNQKVSPIQIDGAGRT [S10N] | 3.21
52 | HHVADAYTSSQKGSPIQIDGAGRT [V13G] | 3.7
53 | HHVADAYTSSQKESPIQIDGAGRT [V13E] | 3.96
54 | HHVADAYTSSQKMSPIQIDGAGRT [V13M] | 3.83
55 | HHVADAYTSSQKNSPIQIDGAGRT [V13N] | 4.32
56 | HHVADAYTSSQKKSPIQIDGAGRT [V13K] | 3.66
57 | HHVADAYTSSQKPSPIQIDGAGRT [V13P] | 3.82
58 | HHVADAYTSSQKDSPIQIDGAGRT [V13D] | 4
59 | HHVADAYTSSQKTSPIQIDGAGRT [V13T] | 3.8
60 | HHVADAYTSSQKWSPIQIDGAGRT [V13W] | 3.16
61 | HHVADAYTSSQKFSPIQIDGAGRT [V13F] | 3.21
62 | HHVADAYTSSQKCSPIQIDGAGRT [V13C] | 2.92
63 | HHVADAYTSSQKASPIQIDGAGRT [V13A] | 3.27
64 | HHVADAYTSSQKYSPIQIDGAGRT [V13Y] | 3.43
65 | HHVADAYTSSQKHSPIQIDGAGRT [V13H] | 3.76
66 | HHVADAYTSSQKSSPIQIDGAGRT [V13S] | 3.79
67 | HHVADAYTSSQKISPIQIDGAGRT [V13I] | 2.83
68 | HHVADAYTSSQKRSPIQIDGAGRT [V13R] | 3.59
69 | HHVADAYTSSQKLSPIQIDGAGRT [V13L] | 3.56
70 | HHVADAYTSSQKQSPIQIDGAGRT [V13Q] | 3.85
71 | HHVADAYTSSQKVSPIVIDGAGRT [Q17V] | 3.49
72 | HHVADAYTSSQKVSPIKIDGAGRT [Q17K] | 3.63

Row | Variant | protein stability index
73 | HHVADAYTSSQKVSPICIDGAGRT [Q17C] | 3.26
74 | HHVADAYTSSQKVSPIGIDGAGRT [Q17G] | 3.29
75 | HHVADAYTSSQKVSPIFIDGAGRT [Q17F] | 3.05
76 | HHVADAYTSSQKVSPIDIDGAGRT [Q17D] | 3.67
77 | HHVADAYTSSQKVSPIRIDGAGRT [Q17R] | 3.72
78 | HHVADAYTSSQKVSPIWIDGAGRT [Q17W] | 2.31
79 | HHVADAYTSSQKVSPILIDGAGRT [Q17L] | 3.57
80 | HHVADAYTSSQKVSPITIDGAGRT [Q17T] | 3.41
81 | HHVADAYTSSQKVSPISIDGAGRT [Q17S] | 3.69
82 | HHVADAYTSSQKVSPIYIDGAGRT [Q17Y] | 2.66
83 | HHVADAYTSSQKVSPIAIDGAGRT [Q17A] | 3.55
84 | HHVADAYTSSQKVSPIEIDGAGRT [Q17E] | 3.65
85 | HHVADAYTSSQKVSPIIIDGAGRT [Q17I] | 3.05
86 | HHVADAYTSSQKVSPIHIDGAGRT [Q17H] | 3.17
87 | HHVADAYTSSQKVSPIMIDGAGRT [Q17M] | 2.99
88 | HHVADAYTSSQKVSPIPIDGAGRT [Q17P] | 3.93
89 | HHVADAYTSSQKVSPINIDGAGRT [Q17N] | 3.64
90 | HHVADAYTSSQKVSCIQIDGAGRT [P15C] | 3.66
91 | HHVADAYTSSQKVSDIQIDGAGRT [P15D] | 3.81
92 | HHVADAYTSSQKVSNIQIDGAGRT [P15N] | 3.47
93 | HHVADAYTSSQKVSVIQIDGAGRT [P15V] | 3.14
94 | HHVADAYTSSQKVSIIQIDGAGRT [P15I] | 2.77
